Data from patent US20100273979A1 (Affibody, published 2010).

Target: T1, rat serum albumin (rat, UniProt P02770 25-608)
T1 construct: Control coat in the screening ELISA; also called RSA
Test: method not stated (unpublished results); unpublished results; method and construct not stated

T1 sequence (P02770 25-608 limits assumed): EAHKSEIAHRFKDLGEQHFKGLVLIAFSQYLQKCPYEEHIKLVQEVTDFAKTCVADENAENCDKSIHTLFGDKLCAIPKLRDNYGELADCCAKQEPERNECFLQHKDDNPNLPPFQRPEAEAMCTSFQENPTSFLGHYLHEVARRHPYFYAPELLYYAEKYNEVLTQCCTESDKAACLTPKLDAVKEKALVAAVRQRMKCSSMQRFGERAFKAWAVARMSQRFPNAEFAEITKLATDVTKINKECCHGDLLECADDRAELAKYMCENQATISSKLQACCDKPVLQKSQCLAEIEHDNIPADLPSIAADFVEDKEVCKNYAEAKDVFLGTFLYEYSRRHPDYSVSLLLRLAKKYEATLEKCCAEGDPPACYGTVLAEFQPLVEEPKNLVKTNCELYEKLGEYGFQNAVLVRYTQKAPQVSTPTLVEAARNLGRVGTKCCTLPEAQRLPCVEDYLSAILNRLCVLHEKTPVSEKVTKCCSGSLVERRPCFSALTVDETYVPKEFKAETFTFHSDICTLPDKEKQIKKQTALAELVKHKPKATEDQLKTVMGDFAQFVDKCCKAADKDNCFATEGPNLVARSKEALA

B1: ABDwt (construct not stated; unpublished results) (other)
chain: LAEAKVLANRELDKYGVSDYYKNLINNAKTVEGVKALIDEILAALP
Question: With B1 as the binder, how does the Kd read?
Answer: Its Kd is 0.07 nM.
